Four molecules from patent publication US20230094463A1, “ANTIBODIES THAT DISRUPT THE INTERACTION OF GAL3 AND INSULIN RECEPTOR OR INTEGRINS AND METHODS OF USE THEREOF” (TrueBinding, Inc., priority 2019, published 2023) can be followed below.

The target of assay [1] is Human GAL3 protein (TrueBinding, QCB200349 / QCB200352; R&D Systems, 8259-GA) (human) (UniProt P17931). In words: blocking ELISA (GAL3 coated; antibody + biotinylated ITGb1). Background: An ELISA detects its analyte on a solid surface through an enzyme-linked reagent.
Human GAL3 protein (TrueBinding, QCB200349 / QCB200352; R&D Systems, 8259-GA) (human), sequence (P17931 2-250 limits assumed): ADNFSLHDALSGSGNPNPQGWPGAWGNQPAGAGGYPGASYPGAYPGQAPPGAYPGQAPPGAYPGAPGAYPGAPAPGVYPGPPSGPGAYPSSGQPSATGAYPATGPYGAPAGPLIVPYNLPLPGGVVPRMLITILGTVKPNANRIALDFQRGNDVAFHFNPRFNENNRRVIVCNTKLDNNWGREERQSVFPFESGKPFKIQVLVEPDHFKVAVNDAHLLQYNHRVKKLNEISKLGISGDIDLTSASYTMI
The target is the same in assay [2]. In words: blocking ELISA (GAL3 coated; antibody + biotinylated ITGa3).
Assay [3] shares this target. Kind of assay: cell-based or functional assay.
The target is the same in assay [4]. Kind of assay: blocking ELISA (GAL3 coated; antibody + biotinylated ITGaV).
For assay [5] the target is unchanged. In words: blocking ELISA (GAL3 coated; antibody + biotinylated ITGb3).
Throughout, for inhibition of Jurkat T cell adhesion: test concentration or dose not given here.

B1: 15F10.2D6 (antibody, V domains shown)
VH: EVQLVESGGGLVKPGGSLKLSCAASGFAFSSYAMSWVRQTPEKRLEWVATISDGGVYTYYTDHVKGRFTISRDNAEDNLYLQMSHLKSEDTAMYYCVRDGGYWGQGTTLTVSS
VL: DVLMTQTPLSLPVSLGDQASISCRSSQSIVHNNGNTYLEWYLQKPGQSPKLLIYKVSNRFSGVPDRFSGSGSGTDFTLKISRVEAEDLGVYYCFQGSHVPLTFGGGTKLELK
Turning to B1, in assay [1], the percent blockade of GAL3-ITGb1 interaction was in the range of 40 to 60%. Also, the percent blockade of GAL3-ITGa3 interaction in assay [2] was greater than 90%. Further, in assay [3], the inhibition of Jurkat T cell adhesion fell in the range of 40 to 80%.

B2: 7D8.2D8 (antibody, V domains shown)
VH: EVQLVESGGGLVKPGGSLKLSCAASGFTFSSYAMSWVRQTPEKRLEWVATISDGGIYTYYPDNVKGRFTISRDNAKNNLFLQMSHLKSEDTAMYYCVRDGGYWGQGTTLTVSS
VL: DVLMTQTPLSLPVSLGDQASISCRSSQSIVHSNGNTYLEWYLQKPGQSPKLLIYKVSNRFSGVPDRFSGSGSGTDFTLKISRVEAEDLGVYYCFQGSHVPLTFGAGTKLELK
For B2, the percent blockade of GAL3-ITGb1 interaction in assay [1] lay in the range of 40 to 60%. The percent blockade of GAL3-ITGa3 interaction in assay [2] was greater than 90%. The inhibition of Jurkat T cell adhesion in assay [3] was in the range of 40 to 80%.

B3: F849C.8D10 (antibody, V domains shown)
VH: QVQLQQTGAELVKPGASVKLSCKASGYTFTSYWINWVKQRPGQGLEWIGNIYPGSSSIYYSEKFKSKATLTVDTSSSTAYMQLSSLTSDDSAVYYCARWGYWGQGTTLTVSS
VL: DVLMTQTPLSLPVSLGDQASISCRSSQDIVHSSGNTYLEWYLQKPGQSLKLLIYKVSNRFSGVPDRFSASGSGTDFTLKISRVEAEDLGVYYCFQGSHVPPTFGSGTKLEIKR
Turning to B3, the percent blockade of GAL3-ITGaV interaction in assay [4] is greater than 90%.

B4: F846TC.14E4 (antibody, V domains shown)
VH: QVTLKESGPGILQPSQTLSLTCSFSGFSLSTSGMGVGWIRQPSGKGLEWLAHIWWDDDKYYNTALKSGLTISKDASKNQVFLKIASMDTADTATYYCARNLYDGSYGYYAMDYWGQGTSVTVSS
VL: DIVMTQAAFSNPVTLGTSASISCRSSKSLLHTNGITFLYWYLQKPGQSPQPLIYQMSNLASGVPDRFSSSGSGTDFTLRISRVEAEDVGVYYCAQNLELPWTFGGGTKLEINR
Consider B4, for which the percent blockade of GAL3-ITGa3 interaction in assay [2] is greater than 90%. In assay [3], this molecule yielded an inhibition of Jurkat T cell adhesion of 40 to 80%. In addition, the percent blockade of GAL3-ITGb3 interaction in assay [5] is greater than 90%.
